From patent publication US20190022245A1 (ACADEMIA SINICA, published 2019)

Legend:
[1] = molecular target: T1, human epidermal growth factor receptor (HER2) on cells (human, UniProt P04626 23-1255); assay: flow cytometry, 10 µg/ml BsAb, FITC anti-human IgG; also methoxy-PEG Qdot 655 retained at SKBR3 cells
T1 construct: whole, on cells; also called HER2/Neu; Her2/neu

[2] = molecular target: T1, human epidermal growth factor receptor …; assay: flow cytometry on BT-474 cells
[3] = molecular target: T2, BSA (control protein coated on ELISA plates) (UniProt P02769 25-607); assay: ELISA, BSA-coated plate, graded concentrations
T2 construct: also called control BSA protein
T2 sequence (P02769 25-607 limits assumed): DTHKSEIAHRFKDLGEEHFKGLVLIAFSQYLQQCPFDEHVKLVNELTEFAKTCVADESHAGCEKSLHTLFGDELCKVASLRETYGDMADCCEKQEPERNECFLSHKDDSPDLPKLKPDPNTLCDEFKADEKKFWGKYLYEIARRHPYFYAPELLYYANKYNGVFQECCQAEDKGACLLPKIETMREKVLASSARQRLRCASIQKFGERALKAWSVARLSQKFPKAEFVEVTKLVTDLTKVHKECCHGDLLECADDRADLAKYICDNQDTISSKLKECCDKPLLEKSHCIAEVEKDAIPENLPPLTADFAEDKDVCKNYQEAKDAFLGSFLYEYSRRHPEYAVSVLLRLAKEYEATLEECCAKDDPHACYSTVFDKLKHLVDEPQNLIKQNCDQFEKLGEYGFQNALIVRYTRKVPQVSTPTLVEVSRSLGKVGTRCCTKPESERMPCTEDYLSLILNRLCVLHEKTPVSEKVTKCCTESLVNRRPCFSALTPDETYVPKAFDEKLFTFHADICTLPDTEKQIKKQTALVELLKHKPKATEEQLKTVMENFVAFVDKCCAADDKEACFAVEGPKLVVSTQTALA
Description: The anti-PEG binding specificity of BsAbs was measured by adding graded concentrations of PEG2×TAG72,PEG2×DNS, hCC49 scFv, h6.3Fab×EGFR or h6.3Fab×CD19 in 50 μL 2% skim milk to the mucin, BSA-PEG5000, NH₂-PEG₃ₖ-NH₂ or BSA coated plates at RT for 1 h. The plates were washed with PBS-T (PBS containing 0.05% Tween-20) three times. Rabbit anti-6×His (2 μg/mL) supplemented with HRP-conjugated goat anti-rabbit (2 μg/mL) or HRP-conjugated goat Ig anti human IgG Fab (2 μg/mL) (Jackson ImmunoResearch Laboratories, West Grove, Pa.) in 50 μL dilution buffer were added for 1 h at room temperature. The plates were washed with PBS-T (PBS containing 0.05% Tween-20) three times and with PBS two times. Bound peroxidase activity was measured by adding 150 μL/well ABTS substrate solution (BioLegend, San Diego, Calif.) for 30 min at room temperature. The absorbance (405 nm) of wells was measured in a microplate reader (Molecular Device, Menlo Park, Calif.).
Further, both h6-3Fab×EGFR and h6.3Fab×CD19 BsAbs bound to the NH₂-PEG_{10,000}-NH2, but not to the control BSA protein, indicating their binding specificity toward PEG molecule (FIGS. 14A and 14B). […] The PEG-binding kinetics of h6-3Fab×EGFR and h6.3Fab×CD19 BsAbs were verified by Microscale Thermophoresis (MST) (FIGS. 14D and 14E).

[4] = molecular target: T3, epidermal growth factor receptor (EGFR) on cells (human (on human cell lines), UniProt P00533 25-1210); assay: flow cytometry, BsAb on A431 cells then PEG-liposome Texas Red or PEG-Qdot655
T3 construct: whole, on cells
Description: PEG2×TAG72 or control PEG2×DNS BsAbs (10 μg/mL) were incubated with A-375(TAG72-), MCF-7(TAG72+), Jurkat (TAG72+) or OVCAR-3(TAG72+) cells at 4° C. for 30 min followed by FITC-labeled goat anti-human immunoglobulin second antibody (2 μg/m L) (Jackson ImmunoResearch Laboratories, West Grove, Pa.) or FITC-labeled 4arm-PEG (2 μg/mL). Tumor-specific targeting of PEGylated compounds was also examined by staining A431 (EGFR^high), and Raji (CD19^high) cell lines with 10 μg/mL of h6.3Fab×EGFR or h6.3Fab×CD19 BsAbs in PBS containing 0.05% BSA (staining buffer) at 4° C. for 30 min. The cells were washed with cold PBS for 3 times. PEG-Qdot655 (8 nM) (Invitrogen, Grand Island, N.Y.) or PEG-liposomal Texas-Red (100 nm size, 50 μM, lipid conc.) (FormuMax Scientific, Palo Alto, Calif.) in staining buffer was added to cells for 30 min at 4° C. […] After washing with cold PBS, the surface fluorescence of 10⁴ viable cells was measured by FACScaliber flow cytometer (Becton Dickinson, Mountain View, Calif., USA) then analyzed with Flowjo (Tree Star Inc., San Carlos, Calif., USA).
Further, both h6-3Fab×EGFR and h6.3Fab×CD19 BsAbs bound to the NH₂-PEG_{10,000}-NH2, but not to the control BSA protein, indicating their binding specificity toward PEG molecule (FIGS. 14A and 14B). […]

[5] = molecular target: T1, human epidermal growth factor receptor …; assay: flow cytometry on SKBR3 cells (HER2+), FITC anti-human IgG
[6] = molecular target: T3, epidermal growth factor receptor (EGFR) …; assay: culture medium on MDA-MB-468 cells (EGFR positive), FITC anti-human Ig
Description: (§1) The binding specificity of monovalent BsAbs with their target proteins was measured by collecting the culture medium of BsAbs producing cells, adding the collected medium to cells that expressed the target protein, then determining the binding by […]. After washing the cells, the bound BsAbs were detected by FITC-labeled goat anti-human immunoglobulin second antibody. […] Thus, monovalent anti-PEG (hE11) BsAbs bound to target cells in an antigen-dependent and selective manner.

[7] = molecular target: T1, human epidermal growth factor receptor …; assay: culture medium on BT-474 cells (HER2 positive), FITC anti-human Ig
Description: as §1

B1: 15-2b knob/anti-HER2 hole (knob in hole anti-mPEG (h15-2b) anti-HER2 BsAb) (bispecific antibody)
light 1: DIQMTQSPSSLSASVGDRVTITCKASQDVNTSVAWYQQKPGKAPKLLIYWASTRHTGVPSRFSGSGSGTDFTFTISSLQPEDIATYYCLQYINYPYTFGQGTKLEIKRTVAAPSVFIFPPSDEQLKSGTASVVCLLNNFYPREAKVQWKVDNALQSGNSQESVTEQDSKDSTYSLSSTLTLSKADYEKHKLYACEVTHQGLSSPVTKSFNRGEC
heavy 1: not shown
light 2: QSVLTQPPSVSAAPGQKVTISCSGSSSNIGNNYVSWYQQLPGTAPKLLIYDHTNRPAGVPDRFSGSKSGTSASLAISGFRSEDEADYYCASWDYTLSGWVFGGGTKLTVLGSSASTKGPSVFPLAPSSKSTSGGTAALGCLVKDYFPEPVTVSWNSGALTSGVHTFPAVLQSSGLYSLSSVVTVPSSSLGTQTYICNVNHKPSNTKVDKKV
heavy 2: not shown
notes: Four different chains; also called h15-2b-knob/anti-HER2-hole; h15-2b-knob/anti-Her2-hole; not shown: HA tag fused at the N terminal of the hole heavy chain
B1: binds [1].

B2: PEG2×HER2 (dimeric humanized anti-PEG (hE11) anti-HER2 BsAb) (bispecific antibody, human IgG1, kappa)
light: DVVMTQSPLSLPVTLGQPASISCRSSKSIVHSNGNTYLEWFQQRPGQSPRRLIYKVSKRMSGVPDRFSGSGSGTDFTLKISRVEAEDVGVYYCSQGSHVPPTFGGGTKVEIKRTVAAPSVFIFPPSDEQLKSGTASVVCLLNNFYPREAKVQWKVDNALQSGNSQESVTEQDSKDSTYSLSSTLTLSKADYEKHKLYACEVTHQGLSSPVTKSFNRGEC
heavy: not shown
notes: also called PEG2×HER2 BsAbs
B2: binds [2].

B3: h6.3 Fab × CD19 (monovalent anti-PEG (h6.3) anti-CD19 BsAb) (bispecific antibody)
light: DIVMTQSPDSLAVSLGERATINCKSSQSVLYSSNQMNYLAWYQQKPGQPPKLLIYWASTRESGVPDRFSGSGSGTDFTLTISSLQAEDVAVYYCLQYLSSWTFGGGTKLEIKTYSLSSTLTLSKADYEKHKLYACEVTHQGLSSPVTKSFNRGEC
heavy: QVQLVQSGSELKKPGASVKVSCKASGYTFKNYGMNWVRQAPGQGLEWMGWINTYTGQPIYANDFKGRFVFSLDTSVSTAYLQISSLKAEDTAVYYCARDWGPYWGQGTLVTVSSASTKGPSVFPLAPSSKSTSGGTAALGCLVKDYFPEPVTVSWNSGALTSGVHTFPAVLQSSGLYSLSSVVTVPSSSLGTQTYICNVNHKPSNTKVDKRVEPKSCDKVDLVTVSSASTGGGSGQLGGGGSQVQLQESGPGLVKPSQTLSLTCTVSGGSISTSGMGVGWIRQHPGKCLEWIGHIWWDDDKRYNPALKSRVTISVDTSKNQFSLKLSSVTAADTAVYYCARMELWSYYFDYWGQGTLVTVSSGGGGSGGGGSGGGGSEIVLTQSPATLSLSPGERATLSCSASSSVSYMHWYQQKPGQAPRLLIYDTSKLASGIPARFSGSGSGTDFTLTISSLEPEDVAVYYCFQGSVYPFTFGCGTKLEIKRTRHHHHHH
notes: Fab-dsFv; also called h6.3-hBU12
B3: no binding [3]; no binding (tested: 10 µg/mL) [4].

B4: 15-2b knob/Bu12 hole (knob in hole anti-mPEG (h15-2b) anti-CD19 BsAb) (bispecific antibody)
light 1: B1 light 1
heavy 1: not shown
light 2: EIVLTQSPATLSLSPGERATLSCSASSSVSYMHWYQQKPGQAPRLLIYDTSKLASGIPARFSGSGSGTDFTLTISSLEPEDVAVYYCFQGSVYPFTFGQGTKLEIKRSSASTKGPSVFPLAPSSKSTSGGTAALGCLVKDYFPEPVTVSWNSGALTSGVHTFPAVLQSSGLYSLSSVVTVPSSSLGTQTYICNVNHKPSNTKVDKKV
heavy 2: not shown
notes: Four different chains; also called h15-2b-knob/BU12-hole; h15-2b knob+BU12-hole; not shown: HA tag fused at the N terminal of the hole heavy chain
B4: no binding (tested: 10 µg/ml) [5].

B5: PEGxTAG72 (monovalent anti-PEG (hE11) Fab fused to anti-TAG72 scFv, example 2.1) (bispecific antibody)
light: B2 light
heavy: QVQLVQSGAEVKKPGASVKVSCKASGYTFTTYTMNWVRQAPGQGLEWMGYIIPSSGYVDYNQKFKGRVTMTRDTSTSTVYMELSSLRSEDTAVYYCVRSLDGYFWFAYWGQGTLVTVSSASTKGPSVFPLAPSSKSTSGGTAALGCLVKDYFPEPVTVSWNSGALTSGVHTFPAVLQSSGLYSLSSVVTVPSSSLGTQTYICNVNHKPSNTKVDKRVVDLVTVSSASTGGGSGQLGGGGSQVQLVQSGAEVKKPGASVKVSCKASGYTFTDHAIHWVRQAPGQCLEWMGYFSPGNDDFKYSQKFQGRVTITADKSASTAYMELSSLRSEDTAVYYCARSWIMQYWGQGTLVTVSSGGGGSGGGGSGGGGSDIVMTQSPDSLAVSLGERATINCKSSQSVLYSSNNKNYLAWYQQKPGQPPKLLIYWASTRESGVPDRFSGSGSGTDFTLTISSLQAEDVAVYYCQQYYSYPLTFGCGTKVEIKTRHHHHHH
notes: Tested as culture medium of producer cells; also called PEG×TAG72; monovalent anti-PEG (hE11) BsAb
B5: no binding [6]; no binding [7].
